From patent US5972636A (priority 1997, dated 1999)
Entries after “also recorded” stand apart in the source; their conditions may differ.

B1: Cystatin A: egg-white cystatin, a potent inhibitor of many papain-like thiol proteinases (protein, UniProt P01040 1-98, looked up)
Cystatin-A: MIPGGLSEAKPATPEIQEIVDKVKPQLEEKTNETYGKLEAVQYKTQVVAGTNYYIKVRAGDNKYMHLKVFKSLPGQNEDLVLTGYQVDKNKDDELTGF

Legend:
[1] = test system: denervated soleus; format: cell-based, rat
[2] = molecular target: T1, proteasome from skeletal muscle (Oryctolagus cuniculus, UniProt G1T4Q9); format: biochemical, rabbit
T1 construct: from tissue; host or cells: rabbit skeletal (psoas) muscle, proteasome fraction after Mono Q and Superose 6

[3] = test system: Ub-lysozyme conjugates; test: Degradation of Ub-lysozyme conjugates in 1st and 2nd hour with additions at 60 min; format: biochemical, rabbit; details: substance added at 60 min, cystatin 4 μM
[4] = test system: proteasome-multipain complex formation; format: biochemical, rabbit
[5] = test system: new protease (multipain) from skeletal muscle
[6] = test system: 1500 kDa complex (proteasome-multipain)

| Molecule | Myofibrillar Proteins 3-Methylhistidine Release ([1]; None = 5.11 ± 0.21, as E65) | Total Proteins Tyrosine Release ([1]; soleus three days after section of the sciatic nerve, None = 328 ± 10, methylamine 10 μM, E64c 50 μM, dinitrophenol 0.1 mM, 2-deoxyglucose 5 mM) | Realtive Activity (%) Proteasome (sLLVT-MCA) [2] | Relative activity (%) […]-MCA [2] | Degradation in 2nd hour ([3]; Complex added initially, None = 65) | Degradation in 2nd hour ([3]; Multipain added initially, None = 74) | effect on formation of the proteasome-multipain complex, in words [4] | Realtive Activity (%) Multipain [5] | Relative activity (%) NEW PROTEASE OH/O2 - treated hemoglobin [5] | Relative activity (%) NEW PROTEASE Ub-lysozyme [5] | Relative activity (%) NEW PROTEASE lysozyme [5] | Ki ([5]; read-out: Ki, inhibition of proteolysis by multipain) | Realtive Activity (%) Complex (Ub-125I-Lysozyme) [6] | inhibition of conjugate breakdown by the complex [6] |
| --- | --- | --- | --- | --- | --- | --- | --- | --- | --- | --- | --- | --- | --- | --- |
| CN [Methylamine] | 5.05 ± 0.19 pmol/mg/2h | 330 ± 11 pmol/mg/2h | – | – | – | – | – | – | – | – | – | – | – | – |
| B1 | – | – | 93% | 93% | 18 ng | 4 ng | did not occur; also recorded: blocked | 30% | 27% | 30% | 24% | < 1000 nM | 35% | 65% |
